Among the data in article PMC9065173 are apoptosis of MOLM13 cells after 4 days with T140-KLA-EVs (annexin V / PI staining, flow cytometry); no difference between T140-KLA-EVs and KLA-EVs in CXCR4-negative AsPC-1 cells values, retold here.

This experiment has as its target CXC-chemokine receptor 4 (CXCR4) (human (endogenous in MOLM13 and CEM)) (UniProt P61073).
Sequence of UniProt P61073 (P61073 whole entry): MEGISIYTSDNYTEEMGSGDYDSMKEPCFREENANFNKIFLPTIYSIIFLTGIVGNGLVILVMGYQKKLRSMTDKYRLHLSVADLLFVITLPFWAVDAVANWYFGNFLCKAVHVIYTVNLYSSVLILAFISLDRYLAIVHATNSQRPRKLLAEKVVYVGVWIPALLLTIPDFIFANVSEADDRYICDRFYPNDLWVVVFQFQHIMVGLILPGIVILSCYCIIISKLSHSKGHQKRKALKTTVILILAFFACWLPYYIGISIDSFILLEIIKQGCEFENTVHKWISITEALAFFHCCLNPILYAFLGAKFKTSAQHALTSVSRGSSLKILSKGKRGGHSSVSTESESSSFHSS

Consider “bifunctional T140-KLA peptide, ligated onto the RBCEV surface (T140-KLA-EVs)”, for which the apoptosis of MOLM13 cells after 4 days with T140-KLA-EVs (annexin V / PI staining, flow cytometry); no difference between T140-KLA-EVs and KLA-EVs in CXCR4-negative AsPC-1 cells is above 50%.
